We go through one substance from patent publication US20120082667A1.

This experiment deals with A beta oligomer prepared from synthetic A beta1-40 (HCl form), 0.1 mg/ml in PBS, incubated at 37 degrees C for one hour (UniProt P05067). In words: SPR, Biacore 3000, A beta1-40 oligomer on CM5 chip, antibody as analyte at five concentrations.

“Anti-A beta antibody 6E10 (Covance Immuno-Technologies)”: the Kd (usually the free concentration of one partner at which half of the binding sites on the other are occupied at equilibrium, for simple one-to-one binding) is 2.91 nM; the koff (usually the rate constant with which the complex falls apart) was found to be 0.000168 s⁻¹; the kon (in general, the second-order rate constant of association) was found to be 57800 M⁻¹ s⁻¹.
